In patent US20060073576A1:

Target: gp120 (strain not stated)
Experiment: competitive ELISA

**Q.** How did the fold increase in binding affinity over CD4M3 turn out when “CD4M8 (double mutant of CD4M3: Gln20Ala, Thr25Ala) (designed binder)” was run?
**A.** > 10 fold
